Measurements as given in article doi:10.1101/2020.10.11.334888 (bioRxiv, 2020).
Changes are numbered by the printed parent chain. Names and notes keep the numbering of the source. Where two headings read alike, the source gives them in different places.

Columns and labels:
cryo-EM structure [1] = biological target: the molecule itself; assay: cryo-EM structure
negative-stain EM = biological target: the molecule itself; assay: negative-stain EM
[2] = biological target: the molecule itself; assay: electron microscopy of purified hook-basal bodies
cryo-EM structure [3] = biological target: the molecule itself; assay: cryo-EM structure; remark: listed apart in the source

B1: FliF in the native flagellar basal body (native MS ring) (natural protein)
chain: MSATASTATQPKPLEWLNRLRANPRIPLIVAGSAAVAIVVAMVLWAKTPDYRTLFSNLSDQDGGAIVAQLTQMNIPYRFANGSGAIEVPADKVHELRLRLAQQGLPKGGAVGFELLDQEKFGISQFSEQVNYQRALEGELARTIETLGPVKSARVHLAMPKPSLFVREQKSPSASVTVTLEPGRALDEGQISAVVHLVSSAVAGLPPGNVTLVDQSGHLLTQSNTSGRDLNDAQLKFANDVESRIQRRIEAILSPIVGNGNVHAQVTAQLDFANKEQTEEHYSPNGDASKATLRSRQLNISEQVGAGYPGGVPGALSNQPAPPNEAPIATPPTNQQNAQNTPQTSTSTNSNSAGPRSTQRNETSNYEVDRTIRHTKMNVGDIERLSVAVVVNYKTLADGKPLPLTADQMKQIEDLTREAMGFSDKRGDTLNVVNSPFSAVDNTGGELPFWQQQSFIDQLLAAGRWLLVLVVAWILWRKAVRPQLTRRVEEAKAAQEQAQVRQETEEAVEVRLSKDEQLQQRRANQRLGAEVMSQRIREMSDNDPRVVALVIRQWMSNDHE
B1 was tested, and the “stoichiometry N” value (cryo-EM structure [1]) was 34.

B2: FliF(L253A), overexpressed in E. coli (natural protein)
chain: B1 chain with L253A
B2: binds (negative-stain EM).

B3: FliF(L253R), overexpressed in E. coli (natural protein)
chain: B1 chain with L253R
B3: binds (negative-stain EM).

B4: FliF(V266A), overexpressed in E. coli (natural protein)
chain: B1 chain with V266A
B4: binds (negative-stain EM).

B5: FliF(V266R), overexpressed in E. coli (natural protein)
chain: B1 chain with V266R
B5: binds (negative-stain EM).

B6: FliF(I252A) expressed from pMMiF002 in Salmonella TH12415 (ΔfliF) (natural protein)
chain: B1 chain with I252A
B6: binds [2].

B7: FliF(L253A) expressed from pMMiF004 in Salmonella TH12415 (ΔfliF) (natural protein)
chain: B1 chain with L253A
B7: binds [2].

B8: full-length Salmonella FliF (MS ring), overexpressed from pKOT112 (data set 1) (natural protein)
chain: B1 chain
For B8, the “stoichiometry N” value (cryo-EM structure [3]) was 34.

B9: full-length Salmonella FliF (MS ring), overexpressed from pKOT105 (data set 2) (natural protein)
chain: B1 chain
With B9 the “stoichiometry N” value (cryo-EM structure [3]) was 34.

B10: FliF(I252A), overexpressed in E. coli (natural protein)
chain: B1 chain with I252A
B10: binds (negative-stain EM).

B11: FliF(I252R), overexpressed in E. coli (natural protein)
chain: B1 chain with I252R
B11: binds (negative-stain EM).
